Reference: PMC9388160, “A multidomain connector links the outer membrane and cell wall in phylogenetically deep-branching bacteria” (Proceedings of the National Academy of Sciences of the …, 2022)

Assays:
[1] = target: DR_0644 (uncharacterized protein, UniProt Q9RWM2) (D. radiodurans); test: cryo-EM structure; single-particle cryo-EM of SlpA purified from D. radiodurans, in 20 mM Hepes/NaOH pH 7.5, 150 mM NaCl, 0.02% DDM; 4.45 mg/mL; C3 symmetry; global resolution 3.25 Å
[2] = target: the molecule itself; test: as above

stoichiometry N [1]	Molecule	stoichiometry N [2]
3	DR_0644 (uncharacterized protein, UniProt Q9RWM2) (natural protein)	–
–	SlpA (Deinococcus radiodurans outer membrane protein, UniProtKB Q9RRB6) (natural protein, D. radiodurans, UniProt Q9RRB6 23-1167, looked up, SlpA, D. radiodurans, UniProtKB Q9RRB6; wild-type protein purified from the bacterium; The map is well resolved from residue 215 onwards; Native, untagged protein in DDM micelles; it models the periplasmic segment from residue 20; also called SlpA protein complex; SlpA trimer; source: purified from D. radiodurans (ATCC BAA816): lysozyme treatment, DDM extraction, HiTrap-Q, Superose 6 Increase) APVSAPQVPALTDVPAGHWAKDAIDRLVSRGVILGYPDGTFRGTQNLTRYEAAIIIARLLDQMRDGETPAGMTAEDMTALQNAIQELAADLAALGVRVSDLEANAVSKDDFARLEARIEEVAAAGGEQGATEALQGQIDDLTARVDEYDALRADVDDNASSIAALNDLTVLLNQDILDLQDRVSAVEAAQADFVQRSDFDALGGRVTTVETRVETVNNSLTGRIAALERNAFSVKPSLTIGYSVSRTSRNFDVDRLFPLNADGTVANNAFTSGGIDTDTGAQRRDFGDFGNASDPVVAGAAGLYGFADGVSYTVYFTDGSTATFDGLNPADYKVPTGKVIDTTKGRNGFGFNNLARYKEGSTDIGISLGFDTSGQFSQVTSGTGGSLFSTAGRLQVNQIDLNFGLVTGLPSDAYVDTNGNGKKDDGEATGRGTYLGSGGTAAILRDPAGNVYRPVFFRFKNATTQFSVGNNPVIVTLGQQQKFYFSDYVFDNNYDGRGDGFTVTVDGSNVPVIGAWKPQIKGVYGSRSGLDGTAEAGYGVYYRGVRAQITPVGTLTAGIHYAQEGRDMFGAAQNTTSTPSDVTTYGADLHGKAFGVELHSEYATSRVRPNTANAAVQTSNAFYARVATRKDNLAFDLNTPAAKFGNDTFGVSLYDLNYRKIDAGYNNVAGISEYGYGSYSRTSAQNIAYNPDTGVTAPFANLDRQAYTDANNDGTSDRNADGTVVATNTKIGQMGFGVKAAANLGPVAIGGYYDTSTGANGDNANRMTEAGGSAKVAYSIFSLRGTYNTLDSNRPQIYRDAAGTQIIGDAKVRRYAVQADVTPGLGLFVGAYYRDVNVNGVRSTTDRGLLGRGYLASSFEPGVGNNAYRTGLRCADNNFGTGTRDIDGVGGVLNPAVNLDQSRTATCFTSYGVEAGHAGDNANALVKDLFFRVGYSRVYVPTTATATTGDFSGSVTYGDARYDRKVGVANVRLAGSFSTTNTQLDSRPAGTRGAVGLIVRTDPLENVPFRPQFNGQVGYYTADNRVAAGNYNANATKYGAGVVLNDFLLPQTKIGVRYDGYMAQNRQYTPFDGDGTQGYFSDANNNRRTNLNGVYVEGAYQDLIFSYGTYTLSQKDLNGVEYGSGINNGQPARGQTFKISYKVNF	3
